According to patent US9279769B2, “Proteins that efficiently generate singlet oxygen” (The Regents of the University of California, priority 2010, dated 2016):
Several values for one entry are separate records, joined by “and”; a condition that tells them apart may be missing. Identical values can stand only once.

System: IFP1.4
Assay: bleaching of fused IFP1.4 in E. coli colonies by blue light
Format: cell-based
Source text: In phototropin, the excited state energy of FMN is consumed to form a covalent bond with a cysteine. To divert this energy into ^1O2 generation, we carried out saturation mutagenesis of the relevant cysteine (Cys426) of the LOV2 domain of Arabidopsis thaliana phototropin 2 (AtPhot2). To screen for optimal ^1O2 production, these site-specific mutants were fused to an infrared fluorescent protein, IFP1.4, which is readily bleached by ^1O2 [21]. Colonies of E. coli expressing the fusion proteins were imaged in the IFP channel (ex 684/em 708 nm) before and after blue light (488 nm) illumination (FIG. 1A). […] The small side chain of the glycine residue may provide space around the cofactor that would allow O2 close apposition to FMN for efficient energy transfer.
[…] was synthesized by overlap extension PCR [48]. Genetic libraries were constructed by saturation and random mutagenesis and DNA shuffling. Mutants were fused to IFP1.4 by overlap extension PCR and cloned into a modified pBAD vector containing the heme oxygenase-1 gene from cyanobacteria. Libraries were expressed in E. coli strain TOP10 and screened by imaging the agar plates with colonies in the IFP channel before and after blue light illumination. Protein purification and spectroscopic characterization experiments were done as described.

B1: C426G (protein)
chain: MERPRAPPSPLNDAESLSERRSLEIFNPSSGKETHGSTSSSSKPPLDGNNKGSSSKWMEFQDSAKITERTAEWGLSAVKPDSGDDGISFKLSSEVERSKNMSRRSSEESTSSESGAFPRVSQELKTALSTLQQTFVVSDATQPHCPIVYASSGFFTMTGYSSKEIVGRNCRFLQGPDTDKNEVAKIRDCVKNGKSYCGRLLNYKKDGTPFWNLLTVTPIKDDQGNTIKFIGMQVEVSKYTEGVNDKALRPNGLSKSLIRYDARQKEKALDSITEVVQTIRHRKSQVQESVSNDTMVKPDSSTTPTPGRQTRQSDEASKSFRTPGRVSTPTGSKLKSSNNRHEDLLRMEPEELMLSTEVIGQRDSWDLSDRERDIRQGIDLATTLERIEKNFVISDPRLPDNPIIFASDSFLELTEYSREEILGRNGRFLQGPETDQATVQKIRDAIRDQREITVQLINYTKSGKKFWNLFHLQPMRDQKGELQYFIGVQLDGSDHVEPLQNRLSERTEMQSSKLVKATATNVDEAVRELPDANTRPEDLWAAHSKPVYPLPHNKESTSWKAIKKIQASGETVGLHHFKPIKPLGSGDTGSVHLVELKGTGELYAMKAMEKTMMLNRNKAHRACIEREIISLLDHPFLPTLYASFQTSTHVCLITDFCPGGELFALLDRQPMKILTEDSARFYAAEVVIGLEYLHCLGIVYRDLKPENILLKKDGHIVLADFDLSFMTTCTPQLIIPAAPSKRRRSKSQPLPTFVAEPSTQSNSFVGTEEYIAPEIITGAGHTSAIDWWALGILLYEMLYGRTPFRGKNRQKTFANILHKDLTFPSSIPVSLVGRQLINTLLNRDPSSRLGSKGGANEIKQHAFFRGINWPLIRGMSPPPLDAPLSIIEKDPNAKDIKWEDDGVLVNSTDLDIDLF
modifications: miniSOG polypeptide
- decrease of IFP fluorescence (blue light (488 nm) illumination): −70%
- IFP1.4 brightness before irradiation (two colonies, fusion to IFP1.4): 100 and 96
- IFP1.4 brightness after irradiation (two colonies, irradiation at 480/30 nm): 27 and 28
